Read-outs that look alike come from different tables or passages of the source.
Tests used:
native gel or EMSA = target: the molecule itself; assay: native gel or EMSA
[1] = target: T1, HSF1-WT monomer (SEC peak 3) (human, UniProt Q00613 1-529); assay: fluorescence polarization
HSF1-ΔTAD = HSF1-ΔTAD (human, UniProt Q00613 1-409); assay: fluorescence polarization
[2] = target: HSF1-WT trimer/oligomer (SEC peak 1) (human, UniProt Q00613 1-529); assay: fluorescence polarization
HSF1-ΔLZ4-TAD [3] = target: T2, HSF1-ΔLZ4-TAD (human, UniProt Q00613 1-383); assay: fluorescence polarization
HSF1-LZ4m (HSF1-CT) = HSF1-LZ4m (HSF1-CT) (human, UniProt Q00613 1-529, M391K;L395P;L398R); assay: fluorescence polarization
HSF1-DBD = HSF1-DBD (human, UniProt Q00613 1-123); assay: fluorescence polarization
[4] = target: T1, HSF1-WT monomer (SEC peak 3); assay: fluorescence polarization; remark: listed apart in the source
HSF1-ΔLZ1-3 (HSF1-CM) = HSF1-ΔLZ1-3 (HSF1-CM) (human, UniProt Q00613 1-129+204-529, internal_change); assay: fluorescence polarization
HSF1-ΔLZ4-TAD [5] = target: T2, HSF1-ΔLZ4-TAD; assay: fluorescence polarization; remark: listed apart in the source

HSF1-WT trimer/oligomer (SEC peak 1), sequence (Q00613 whole entry): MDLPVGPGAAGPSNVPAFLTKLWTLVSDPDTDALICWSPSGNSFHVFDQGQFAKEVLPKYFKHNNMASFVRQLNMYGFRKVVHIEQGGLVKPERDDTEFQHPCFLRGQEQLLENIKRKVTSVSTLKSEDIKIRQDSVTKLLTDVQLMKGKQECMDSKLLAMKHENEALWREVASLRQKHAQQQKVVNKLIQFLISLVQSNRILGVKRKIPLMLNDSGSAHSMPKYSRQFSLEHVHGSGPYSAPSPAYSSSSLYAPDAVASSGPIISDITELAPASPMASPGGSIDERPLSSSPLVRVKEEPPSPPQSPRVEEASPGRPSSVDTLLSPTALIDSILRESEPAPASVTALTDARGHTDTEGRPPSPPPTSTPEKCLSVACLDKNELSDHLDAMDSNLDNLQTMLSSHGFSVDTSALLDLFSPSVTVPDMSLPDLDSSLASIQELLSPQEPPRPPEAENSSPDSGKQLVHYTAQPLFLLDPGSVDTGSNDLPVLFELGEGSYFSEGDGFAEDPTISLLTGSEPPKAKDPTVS

Binder | binding result (native gel or EMSA) | Kd [1] [nM] | Kd (HSF1-ΔTAD) [nM] | Kd [2] [nM] | Kd (HSF1-ΔLZ4-TAD [3]) [nM] | Kd (HSF1-LZ4m (HSF1-CT)) [nM] | Kd (HSF1-DBD) [nM] | Kd [4] [nM] | Kd (HSF1-ΔLZ1-3 (HSF1-CM)) [nM] | Kd (HSF1-ΔLZ4-TAD [5]) [nM]
HSF1-LZ4mutant (LZ4m), constitutively trimeric/ oligomeric (CT) (natural protein, human, UniProt Q00613 1-529, looked up) MDLPVGPGAAGPSNVPAFLTKLWTLVSDPDTDALICWSPSGNSFHVFDQGQFAKEVLPKYFKHNNMASFVRQLNMYGFRKVVHIEQGGLVKPERDDTEFQHPCFLRGQEQLLENIKRKVTSVSTLKSEDIKIRQDSVTKLLTDVQLMKGKQECMDSKLLAMKHENEALWREVASLRQKHAQQQKVVNKLIQFLISLVQSNRILGVKRKIPLMLNDSGSAHSMPKYSRQFSLEHVHGSGPYSAPSPAYSSSSLYAPDAVASSGPIISDITELAPASPMASPGGSIDERPLSSSPLVRVKEEPPSPPQSPRVEEASPGRPSSVDTLLSPTALIDSILRESEPAPASVTALTDARGHTDTEGRPPSPPPTSTPEKCLSVACLDKNELSDHLDAKDSNPDNRQTMLSSHGFSVDTSALLDLFSPSVTVPDMSLPDLDSSLASIQELLSPQEPPRPPEAENSSPDSGKQLVHYTAQPLFLLDPGSVDTGSNDLPVLFELGEGSYFSEGDGFAEDPTISLLTGSEPPKAKDPTVS | binds |  |  |  |  |  |  |  |  | 
HSE (canonical three-site) (dsDNA) DNA 1: CCTGGAATATTCCCGAACTGGC DNA 2: GCCAGTTCGGGAATATTCCAGG |  | 56.7 ± 4.62 | 60.3 ± 1.13 | 17.1 ± 6.28 | 22.6 ± 1.36 | 25.1 ± 8.09 | 85.3 ± 6.29 | 7.98 ± 1.43 | 6.57 ± 1.39 | 12.9 ± 0.335
mHSE (mutant HSE) (dsDNA) DNA 1: CCTGGCGTAGTCCCCGCCTGGC DNA 2: GCCAGGCGGGGACTACGCCAGG |  |  |  |  |  |  |  | 84.8 ± 14.2 |  | 

— publication doi:10.1101/2025.04.28.650926 (bioRxiv, 2025)
